# Measured values as given in patent US20250188133A1, “CHIMERIC BACTERIOCINS AND METHOD FOR THE CONTROL OF PSEUDOMONAS” (priority 2022, published 2025).
# B1: S5-PmnH (protein)
# chain: MSNDNEVPGSMVIVAQGPDDQYAYEVPPIDSAAVAGNMFGDLIQREIYLQKNIYYPVRSIFEQGTKEKKEINKKVSDQVDGLLKQITQGKREATRQERVDVMSAVLHKMESDLEGYKKTFTKGPFIDYEKQSSLSIYEAWVKIWEKNSWEERKKYPFQQLVRDELERAVAYYKQDSLSEAVKVLRQELNKQKALKEKEDLSQLERDYRTRKANLEMKVQSELDQAGSALPPLVSPTPEQWLERATRLVTQAIADKKQLQTTNNTLIKNSPTPLEKQKAIYNGELLVDEIASLQARLVKLNAETTRRRTEKELTPDEKAAYTDAVSFVSTANEQMLQKYGANLSKVAQDMQAEIAGKKVRSYAEAMATFEKISANPAMKLNALDTQAVVDALNALDKASFADNITRLGKAFGVVGKVVQAEAIREKTVSGFQTGDWKPLMLELEAMAVGTGAGILLATSMAFFFPVFASAAAGVVVVALMMAATAAYFDAAKVDEINNLILN
# modifications: Chimeric S5-PmnH
# Legend:
# Format in all cases: cell-based
# P. aeruginosa strains = test: agar disc-diffusion assay, panel of 25 strains
# How it was run: (§1)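 Lawn: OD595=1.0 culture in CAA, 100× dilution, cotton-swab streak on CAA solid agar 1.5%. Discs 6 mm, 0.3-30 μg pyocin per disc. 37° C overnight; zones scored.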
# P. aeruginosa HP41 = test: agar disc-diffusion assay; conditions: strain HP41; 0.3, 3 and 30 μg of protein spotted on discs on CAA agar lawn, overnight
# How it was run: as §1
# P. aeruginosa HP75 = test: agar disc-diffusion assay; conditions: strain HP75; 0.3, 3 and 30 μg of protein spotted on discs on CAA agar lawn, overnight
# How it was run: as §1
# P. aeruginosa PAO1 = test: agar disc-diffusion assay; conditions: strain PAO1; 0.3, 3 and 30 μg of protein spotted on discs on CAA agar lawn, overnight
# How it was run: as §1
# P. aeruginosa HP7 = test: agar disc-diffusion assay; conditions: strain HP7; 0.3, 3 and 30 μg of protein spotted on discs on CAA agar lawn, overnight
# How it was run: as §1
# P. aeruginosa A19 = test: agar disc-diffusion assay; conditions: strain A19; 0.3, 3 and 30 μg of protein spotted on discs on CAA agar lawn, overnight
# How it was run: as §1
# P. aeruginosa NCTC 13437 = test: agar disc-diffusion assay; conditions: strain NCTC 13437; 0.3, 3 and 30 μg of protein spotted on discs on CAA agar lawn, overnight
# How it was run: as §1
# P. aeruginosa BL77 = test: agar disc-diffusion assay; conditions: strain BL77; 0.3, 3 and 30 μg of protein spotted on discs on CAA agar lawn, overnight
# How it was run: as §1
# P. aeruginosa EY76 = test: agar disc-diffusion assay; conditions: strain EY76; 0.3, 3 and 30 μg of protein spotted on discs on CAA agar lawn, overnight
# How it was run: as §1
# P. aeruginosa PA14 = test: agar disc-diffusion assay; conditions: strain PA14; 0.3, 3 and 30 μg of protein spotted on discs on CAA agar lawn, overnight
# How it was run: as §1
# P. aeruginosa HP52 = test: agar disc-diffusion assay; conditions: strain HP52; 0.3, 3 and 30 μg of protein spotted on discs on CAA agar lawn, overnight
# How it was run: as §1
# P. aeruginosa HP6 = test: agar disc-diffusion assay; conditions: strain HP6; 0.3, 3 and 30 μg of protein spotted on discs on CAA agar lawn, overnight
# How it was run: as §1
# P. aeruginosa HP40 = test: agar disc-diffusion assay; conditions: strain HP40; 0.3, 3 and 30 μg of protein spotted on discs on CAA agar lawn, overnight
# How it was run: as §1
# P. aeruginosa BI80 = test: agar disc-diffusion assay; conditions: strain BI80; 0.3, 3 and 30 μg of protein spotted on discs on CAA agar lawn, overnight
# How it was run: as §1
# P. aeruginosa Pr335 = test: agar disc-diffusion assay; conditions: strain Pr335; 0.3, 3 and 30 μg of protein spotted on discs on CAA agar lawn, overnight
# How it was run: as §1
# P. aeruginosa BR79 = test: agar disc-diffusion assay; conditions: strain BR79; 0.3, 3 and 30 μg of protein spotted on discs on CAA agar lawn, overnight
# How it was run: as §1
# P. aeruginosa HP1 = test: agar disc-diffusion assay; conditions: strain HP1; 0.3, 3 and 30 μg of protein spotted on discs on CAA agar lawn, overnight
# How it was run: as §1
# P. aeruginosa ATCC 19660 = test: agar disc-diffusion assay; conditions: strain ATCC 19660; 0.3, 3 and 30 μg of protein spotted on discs on CAA agar lawn, overnight
# How it was run: as §1
# P. aeruginosa Bu002 = test: agar disc-diffusion assay; conditions: strain Bu002; 0.3, 3 and 30 μg of protein spotted on discs on CAA agar lawn, overnight
# How it was run: as §1
# P. aeruginosa ATCC 29260 = test: agar disc-diffusion assay; conditions: strain ATCC 29260; 0.3, 3 and 30 μg of protein spotted on discs on CAA agar lawn, overnight
# How it was run: as §1
# [1] = test system: P. aeruginosa Boston 41501 (ATCC 27853); test: agar disc-diffusion assay; conditions: strain Boston; 0.3, 3 and 30 μg of protein spotted on discs on CAA agar lawn, overnight
# How it was run: as §1
# P. aeruginosa UR78 = test: agar disc-diffusion assay; conditions: strain UR78; 0.3, 3 and 30 μg of protein spotted on discs on CAA agar lawn, overnight
# How it was run: as §1
# P. aeruginosa NCTC 13921 = test: agar disc-diffusion assay; conditions: strain NCTC 13921; 0.3, 3 and 30 μg of protein spotted on discs on CAA agar lawn, overnight
# How it was run: as §1
# P. aeruginosa 13-18499 = test: agar disc-diffusion assay; conditions: strain 13-18499; 0.3, 3 and 30 μg of protein spotted on discs on CAA agar lawn, overnight
# How it was run: as §1
molecule,measurement,setting,value
B1,inhibition on lawns of S5 producer strains HP6 and HP7,"P. aeruginosa strains; clinical isolates HP6 and HP7, S5 gave turbid zones with 3 μg and 30 μg",significantly larger and clearer than those formed by S5
same,activity spectrum / profile in agar disc diffusion assay,"P. aeruginosa strains; panel of 25 P. aeruginosa strains, in words",broadened activity spectrum in comparison to pyocin S5
same,inhibition zones on lawns of S5-producing strains,"P. aeruginosa strains; six pyocin S5 and immunity gene-positive strains (PA14, PAO1, HP6, HP7, ATCC 19660, NCTC 13921)",formed inhibition zones on the lawns of all six S5-producing strains
same,Activity in agar disc-diffusion assay,P. aeruginosa HP41,*** (activity detected with 0.3 μg of protein)
same,Activity in agar disc-diffusion assay,P. aeruginosa HP75,** (activity detected with 3 μg of protein)
same,Activity in agar disc-diffusion assay,P. aeruginosa PAO1,*** (activity detected with 0.3 μg of protein)
same,Activity in agar disc-diffusion assay,P. aeruginosa HP7,*** (activity detected with 0.3 μg of protein)
same,Activity in agar disc-diffusion assay,P. aeruginosa A19,*** (activity detected with 0.3 μg of protein)
same,Activity in agar disc-diffusion assay,P. aeruginosa NCTC 13437,* (activity detected only with 30 μg of protein)
same,Activity in agar disc-diffusion assay,P. aeruginosa BL77,** (activity detected with 3 μg of protein)
same,Activity in agar disc-diffusion assay,P. aeruginosa EY76,*** (activity detected with 0.3 μg of protein)
same,Activity in agar disc-diffusion assay,P. aeruginosa PA14,*** (activity detected with 0.3 μg of protein)
same,Activity in agar disc-diffusion assay,P. aeruginosa HP52,** (activity detected with 3 μg of protein)
same,Activity in agar disc-diffusion assay,P. aeruginosa HP6,*** (activity detected with 0.3 μg of protein)
same,Activity in agar disc-diffusion assay,P. aeruginosa HP40,*** (activity detected with 0.3 μg of protein)
same,Activity in agar disc-diffusion assay,P. aeruginosa BI80,*** (activity detected with 0.3 μg of protein)
same,Activity in agar disc-diffusion assay,P. aeruginosa Pr335,*** (activity detected with 0.3 μg of protein)
same,Activity in agar disc-diffusion assay,P. aeruginosa BR79,** (activity detected with 3 μg of protein)
same,Activity in agar disc-diffusion assay,P. aeruginosa HP1,*** (activity detected with 0.3 μg of protein)
same,Activity in agar disc-diffusion assay,P. aeruginosa ATCC 19660,** (activity detected with 3 μg of protein)
same,Activity in agar disc-diffusion assay,P. aeruginosa Bu002,*** (activity detected with 0.3 μg of protein)
same,Activity in agar disc-diffusion assay,P. aeruginosa ATCC 29260,*** (activity detected with 0.3 μg of protein)
same,Activity in agar disc-diffusion assay,[1],*** (activity detected with 0.3 μg of protein)
same,Activity in agar disc-diffusion assay,P. aeruginosa UR78,*** (activity detected with 0.3 μg of protein)
same,Activity in agar disc-diffusion assay,P. aeruginosa NCTC 13921,*** (activity detected with 0.3 μg of protein)
same,Activity in agar disc-diffusion assay,P. aeruginosa 13-18499,** (activity detected with 3 μg of protein)
